Laboratory results as given in patent US20240238445A1, “INHIBITORS AND USES THEREOF” (NEURACLE SCIENCE CO., LTD., priority 2021, published 2024).
Values belong to the molecule of their own block, whether it stands above or below them. Ends that are not written are not given here.

Columns and labels:
[1] = biological target: interaction between Fc conjugated LRRC4B (amino acids 453-576) protein fragment and FAM19A5 protein (Homo sapiens, UniProt Q7Z5A7); assay: Competitive inhibition assay of chemical compounds, plate coated with Fc conjugated LRRC4B fragment (453-576); assay type: binding; conditions: for effect of increasing concentration on LRRC4B-FAM19A5 interaction (in words): increasing concentrations
Protocol: In particular, the following compounds were produced: (1) KB734, (2) KB761, (3) KB763, (4) KB1157, (5) KB1161, (6) KB1542, (7) KB1543, (8) KB2256, (9) KB2258, (10) KB2310, (11) KB2357, (12) KB2718, (13) KB2719, (14) KB3111, (15) KB3112, (16) KB3220, (17) KB3201, (18) KB3250, and (19) KB3251. Then, the ability of the above chemical compounds to inhibit the binding of LRRC4 protein family members to FAM19A5 protein was assessed using a competitive inhibition assay. Briefly, ELISA plates were coated with 100 nM of a Fc conjugated LRRC4B fragment (amino acids 453-576 of SEQ ID NO: 2; SEQ ID NO: 7). Then, recombinant FAM19A5 protein (1 ng/mL) was added to the plates in combination with one of the above chemical compounds (100 μM). Recombinant FAM19A5 protein alone (“CTRL”) or in combination with DMSO was used as control. The plates were incubated at 37° C. and then, the amount of FAM19A5 protein bound to the coated LRRC4B protein fragment was assessed using HRP-conjugated anti-FAM19A5 (1-65) antibody.
Next, to assess whether increasing the concentration of the chemical compounds could improve the inhibitory effect, increasing concentrations of KB734, KB2310, and KB2357 compounds were subjected to the same competitive inhibition assay described above.
To further assess the inhibitory effect of the KB2357 chemical compound on FAM19A5 protein and members of the LRRC4 protein family, the following derivatives of the KB2357 compound were synthesized as described earlier: (1) KB2304, (2) KB2305, (3) KB2308, (4) KB2309, (5) KB2314, (6) KB2315, (7) KB2324, (8) KB2325, (9) KB2328, (10) KB2329, (11) KB2336, (12) KB2337, (13) KB2350, (14) KB2356, (15) KB2358, (16) KB2359, (17) KB2369, (18) KB2372, and (19) KB2399. The derivative compounds were also tested in the competitive inhibition assay as described above.

[2] = biological target: interaction between His-TEV LRRC4B and rFAM19A5 (Homo sapiens, UniProt Q7Z5A7); assay: Competitive inhibition assay (IC50), plate coated with His-TEV LRRC4B; assay type: binding; conditions: Table 15; His-TEV LRRC4B 100 nM coat; peptide 0.3-10000 nM; read-out: IC50 (nM), Inhibition on Complex Formulation between LRRC4B protein and recombinant FAM19A5 protein (1 ng/ml)
Protocol: To further assess the inhibitory effect of the FB-21 mutants, the ability of additional FB-21 mutants described in Example 9 were tested for their ability to inhibit the interaction between FAM19A5 protein and LRRC4B protein. Briefly, plates were coated with 100 nM of His-TEV LRRC4B and then 1 ng/mL of rFAM19A5 was incubated at 37° C. in the presence of increasing concentrations of the FB-21 peptide fragments (0.3, 1, 3, 10, 30, 100, 300, 1000, 3000 and 10000 nM). The LRRC4B-bound FAM19A5 levels were measured using HRP-conjugated 1-65 SS01 antibody. As shown in FIG. 22B (see Table 15 for IC50), most (if not all) of the FB-21 mutants had improved ability in inhibiting the interaction between LRRC4B and recombinant FAM19A5 protein.
Next, to assess whether other properties of the polypeptides described herein can be improved (e.g., solubility, prevention of degradation from protease and peptidase, and in vivo administration), the following additional FB-21 peptide mutants were constructed and tested for their ability to inhibit the interaction between FAM19A5 protein and LRRC4B: (1) d-form FB-21 peptide (“dFB-21”), (2) d-form FB-21 peptide with juxta-membrane (JM) sequence (“dFB-JM-31”), (3) d-form FB-21 peptide with BBB penetrating sequence at each end of the sequence (“dFB-BBB-39”), and (4) d-form FB-21 mutant peptide with DY replacement and additional JM sequence (“dFB-DY-JM31”). The sequence for d-form FB-21 peptide is set forth in SEQ ID NO: 153 (nYTYFTTVTVETLETQPGEEa; wherein the lowercase amino acids represent D-form of the amino acid, and the uppercase amino acids represent L-form of the amino acid). The sequence for dFB-BBB-39 is set forth in SEQ ID NO: 154 (n[…]l; wherein the lowercase amino acids represent D-form of the amino acid, and the uppercase amino acids represent L-form of the amino acid). The sequence for dFB-JM-31 is set forth in SEQ ID NO: 155 (n[…]a; wherein the lowercase amino acids represent D-form of the amino acid, and the uppercase amino acids represent L-form of the amino acid). The sequence for dFB-DY-JM31 is set forth in SEQ ID NO: 156 (n[…]a; wherein the lowercase amino acids represent D-form of the amino acid, and the uppercase amino acids represent L-form of the amino acid). The overall experimental methods were the same as those described immediately above.

[3] = biological target: hFc-fused hLRRC4B and FAM19A5 complex formation (Homo sapiens, UniProt Q7Z5A7); assay: Competitive inhibition assay (IC50), plate coated with LRRC4B(453-576, TT/TT)-hFc; assay type: binding; conditions: for IC50: Table 14, LRRC4B(453-576, TT/TT)-hFc 100 nM coat, peptide 0.03-1000 nM, read-out: IC50 (nM), Inhibition on Complex Formulation between human LRRC4B protein and recombinant FAM19A5 protein (1 ng/mL)
Protocol: The in silico analysis provided in Example 9 highlighted that certain T12 and L13 double mutants might be important in improving the binding affinity of the polypeptides of the present disclosure to the FAM19A5 protein. Therefore, the ability of both the wild-type FB-21 peptide (which is the same as the FB-20 peptide described herein except that the FB-21 peptide additionally contains an alanine at the C-terminus) and several FB-21 mutants were tested for their inhibitor effect on hFc-fused hLRRC4B and FAM19A5 complex formation. Briefly, plate was coated with 100 nM of LRRC4B(453-576, TT/TT)-hFc and then 1 ng/ml of rFAM19A5 was incubated at 37° C. in the presence of increasing concentrations of the different FB-21 peptide fragments (0.03, 0.1, 0.3, 1, 3, 10, 30, 100, 300 and 1000 nM). The LRRC4B-bound FAM19A5 levels were measured using HRP-conjugated 1-65 antibody.

[4] = biological target: T1, FAM19A5 protein (Homo sapiens, UniProt Q7Z5A7); assay: competitive inhibition ELISA, 20 nM peptide, rFAM19A5 5 ng/mL; competitor: coated LRRC4B(36-576)-hFc
[5] = biological target: T1, FAM19A5 protein; assay: competitive inhibition ELISA, 20 nM peptide, rFAM19A5 1 ng/mL; competitor: coated LRRC4B(453-576)-hFc
[6] = biological target: T1, FAM19A5 protein; assay: competitive inhibition ELISA, 20 nM peptide, rFAM19A5 5 ng/mL; competitor: coated LRRC4B(36-576)-hFc; remark: listed apart in the source
[7] = biological target: T1, FAM19A5 protein; assay: competitive inhibition ELISA; competitor: coated LRRC4B(36-576)-hFc
[8] = biological target: T1, FAM19A5 protein; assay: competitive inhibition ELISA; competitor: coated LRRC4B(453-576)-hFc
[9] = biological target: T1, FAM19A5 protein; assay: competitive inhibition ELISA, 20 nM peptide, rFAM19A5 1 ng/mL; competitor: coated LRRC4B(453-576)-hFc; remark: listed apart in the source

interaction between Fc conjugated LRRC4B (amino acids 453-576) protein fragment and FAM19A5 protein, sequence (Q7Z5A7 44-132): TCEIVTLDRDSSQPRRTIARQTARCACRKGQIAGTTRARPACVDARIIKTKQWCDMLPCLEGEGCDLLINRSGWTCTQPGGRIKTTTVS

Molecule: CCCCCC(O)/C=C\c1ccc(O)c(OC)c1 (stereo not shown) [KB2356, (Z)-4-(3-Hydroxyoct-1-en-1-yl)-2-methoxyphenol]
effect of increasing concentration on LRRC4B-FAM19A5 interaction (in words) [1]: able to reduce the interaction in a dose-dependent manner

reduction of interaction between FAM19A5 and the coated LRRC4B protein fragment compared to the controls ([1]; 100 μM compound, FAM19A5 1 ng/mL): about 10%
effect of increasing concentration on LRRC4B-FAM19A5 interaction (in words) [1]: greater reduction in the interaction
Molecule: CCCCC[C@@H](O)C#Cc1ccc(O)c(OC)c1 [KB2357, (R)-4-(3-Hydroxyoct-1-yn-1-yl)-2-methoxyphenol]

Molecule: CCCCC[C@H](O)C#Cc1ccc(O)c(OC)c1 [KB2358, (S)-4-(3-Hydroxyoct-1-yn-1-yl)-2-methoxyphenol]
effect of increasing concentration on LRRC4B-FAM19A5 interaction (in words) [1]: able to reduce the interaction in a dose-dependent manner

IC50 [2]: 138 nM
IC50 [3]: 11.9 nM
Molecule: GYTYFTTVTVETLETQPGEEA [FB-21 (wild-type)]

IC50 [2]: 46.7 nM
IC50 [3]: 4.1 nM
increase in ability to dissociate the LRRC4B-FAM19A5 complex compared with wild-type FB-21 ([3]; from IC50 of Table 14): 2.9 folds
Molecule: GYTYFTTVTVEWYETQPGEEA [FB-21 (W12Y13)]

Inhibition rate (%) [4]: 65.7%
Inhibition rate (%) [5]: 40.4%
Molecule: NFSYFSTVTVETMEPSQDERTTR [FBC4C-23]

Inhibition rate (%) [4]: 64.1%
Inhibition rate (%) [5]: 40.4%
Molecule: NYSFFTTVTVETTEISPEDTTRK [FBC4-23]

Inhibition rate (%) [6]: 84.3%
Inhibition rate (%) [7]: 77%
Inhibition rate (%) [8]: 63.2%
Inhibition rate (%) [4]: 77%
Inhibition rate (%) [5]: 63.2%
Inhibition rate (%) [9]: 62%
Molecule: GYTYFTTVTVETLETQPGEE [FB-20]
